Values joined by “and” are separate entries in the source; they are usually repeats but may differ in a detail not shown here. Equal entries are not always repeated. Non-standard residues stand in square brackets, D forms with d. No end group written: not given here. Cit = NC(=O)NCCC[C@H](N)C(=O)O
What was measured:
FaNaC1 (WT) [1] = molecular target: T1, FaNaC1 (WT) (Malacoceros fuliginosus, UniProt A0AAN0NP85); experiment: TEVC, diminazene block of peak and sustained FMRFa-gated current, WT FaNaC1 in oocytes; type: cell-based; conditions: per oocyte
T1 sequence (A0AAN0NP85 1-600): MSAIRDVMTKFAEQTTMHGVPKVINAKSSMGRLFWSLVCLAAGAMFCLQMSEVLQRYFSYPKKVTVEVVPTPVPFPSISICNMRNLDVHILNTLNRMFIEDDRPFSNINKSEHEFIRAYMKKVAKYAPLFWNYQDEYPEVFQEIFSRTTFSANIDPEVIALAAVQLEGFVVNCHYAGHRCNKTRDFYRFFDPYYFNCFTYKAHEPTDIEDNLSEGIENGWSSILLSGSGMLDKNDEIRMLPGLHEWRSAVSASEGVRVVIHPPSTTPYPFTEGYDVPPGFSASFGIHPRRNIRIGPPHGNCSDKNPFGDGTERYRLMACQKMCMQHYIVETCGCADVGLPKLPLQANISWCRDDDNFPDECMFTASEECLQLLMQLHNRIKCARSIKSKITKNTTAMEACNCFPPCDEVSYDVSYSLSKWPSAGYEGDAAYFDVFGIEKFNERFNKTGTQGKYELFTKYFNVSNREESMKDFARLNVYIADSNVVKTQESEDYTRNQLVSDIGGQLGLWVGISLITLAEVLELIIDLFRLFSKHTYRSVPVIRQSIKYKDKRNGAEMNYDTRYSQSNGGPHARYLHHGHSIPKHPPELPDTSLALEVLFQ
Experimental: (§1) FaNaC1 in a modified pSP64 plasmid vector (Supplementary Notes) was used for mutagenesis and messenger RNA preparation and injection into stage V/VI Xenopus laevis oocytes (EcoCyte Bioscience). Mutants were generated by partly overlapping primers (Supplementary Table 1 and ref. [75]), and channel-coding inserts were Sanger sequenced. […] NaCl was replaced with KCl, NH4Cl or H3CNH3Cl (Merck) where appropriate.
(§2) Current amplitudes were measured in Clampfit v.11 (Molecular Devices). N values refer to experiments performed on different oocytes. Data were analyzed in Prism v.9 (GraphPad) and fit with Prism v.9 variable-slope four-parameter nonlinear regression, yielding half-maximal effective activating/inhibiting concentrations (EC50/IC50). […] Mean ± standard error of the mean (s.e.m.) EC50/IC50 from fits to individual cells reported in Main. Currents shown in figures are further filtered (20 Hz) and decimated (50×) in Clampfit 11 for smaller file size.
(a) 1 μM FMRF-gated currents with and without diminazene in an oocyte expressing wildtype (WT) FaNaC1. […] Scale bars: x, 5 s; y, 0.2 µA. (b) Mean ± SEM normalized peak (n = 4 oocytes) and sustained (n = 7 oocytes) current amplitude in the presence of increasing concentrations of diminazene. […] Scale bars: x, 5 s; y, 0.1 µA. Source data

FaNaC1 D0′N = experiment: TEVC, diminazene block of sustained FMRFa-gated current at mutant channel; type: cell-based, Malacoceros fuliginosus; conditions: block of Isus
Experimental: (§3) Fig. 5 FaNaC1/FMRFa/diminazene structure. a, Pore-lining residues in FaNaC1/FMRFa/diminazene structure (left) and pore radius for all four cryo-EM structures calculated in HOLE[53] (right). b, Top, diminazene structure (ionized at pH 7.4). Middle, peak (Ipeak) and sustained (Isus) FMRFa (3 µM)-gated currents through FaNaC1 in the absence and presence of diminazene (10 μM). Bottom, % block (individual data points, n = 3 oocytes at −60 mV, 4 at 10 mV, 3 at 80 mV; and means, bars) of Isus by diminazene at three different membrane potentials. c, Magnified view of FaNaC1/FMRFa/diminazene model, showing nonprotein cryo-EM density in the pore as mesh. d, Concentration-dependent block of Isus by diminazene at WT and mutant channels (mean ± s.e.m., n = 4 oocytes, except D0′N—see Source data). e, FMRFa-gated current amplitude (Vm = −60 mV; individual data points (n = 5) and means, bars) in extracellular solutions based on different cations. Source data
(§4) Given the drug’s effect on pore radius and its voltage-dependent block of currents, we hypothesized that this nonprotein density derives from partially unresolved or low occupancy diminazene molecules. […] We also generated mutant G2′S channels but saw no currents in oocytes injected with these RNAs (n = 8 over two batches of ooyctes). An additional helical turn higher, the S-1′A substitution caused constitutive current, as expected for mutating the TM2a-1′ degenerin position, but had no effect on diminazene potency (Fig. 5d and Extended Data Fig. 9c). […] Thus, we interpret our FaNaC1/FMRFa/diminazene structure as an FMRFa-gated, diminazene-blocked, open-channel conformation.
as §1
(§5) Oocytes were clamped at −60 mV unless otherwise indicated, and currents were measured by two-electrode voltage clamp, as previously described, using a Warner OC-725C amplifier and HEKA LIH8 + 8 interface with Patchmaster 2x90.4 software (HEKA), sampling at 500 Hz or 1 kHz and filtering at 100 Hz. Current amplitudes were measured in Clampfit v.11 (Molecular Devices). N values refer to experiments performed on different oocytes. Data were analyzed in Prism v.9 (GraphPad) and fit with Prism v.9 variable-slope four-parameter nonlinear regression, yielding half-maximal effective activating/inhibiting concentrations (EC50/IC50). In establishing EC50 values for activation by FMRFa, we waited 4 min between applications of increasing concentrations. […]

FaNaC1 G3′S = experiment: as above; type: cell-based, Malacoceros fuliginosus; conditions: block of Isus
Experimental: as §3, §4, §1, §5

FaNaC1 G6′S = experiment: as above; type: cell-based, Malacoceros fuliginosus; conditions: block of Isus
Experimental: as §3, §4, §1, §5

FaNaC1 S-1′A = experiment: as above; type: cell-based, Malacoceros fuliginosus; conditions: block of Isus
Experimental: as §3, §4, §1, §5

FaNaC1 H297S [2] = experiment: TEVC, diminazene block of constitutive current of H297S channels; type: cell-based, Malacoceros fuliginosus; conditions: 30 µM diminazene, mean ± s.e.m., n = 7
From the text: (§6) Fig. 6 FaNaC1 gating mechanism. a, Overlay of ligand-free FaNaC1 (blue) and FaNaC1/FMRFa/diminazene (orange) structures. Adjacent subunit in darker shades. b, Magnified views of boxed regions, left to right: ligand binding site; palm domain; β-turn–TM2a/TM1 interactions. Selected side chains shown as sticks and labeled. c, Illustration of one subunit (left subunit in a) moving during gating: peripheral rolling, internal stasis and β-turn moving outward to allow channel expansion. α6 helix from adjacent subunit in gray. d, Top left and bottom, example recordings from oocytes expressing mutant H297S FaNaC1 channels (scale bars, x, 30 s; y, 1 µA). Top right, mean (± s.e.m., n = 5 oocytes) responses of H297S channels to FMRFa and ASSFVRIa normalized to maximum FMRFa-gated current (I/Imax-FMRFa), compared to WT channels. […]
as §5, with “N values refer to experiments performed on different oocytes.” left out, “(EC50/IC50).” for “(EC50/IC50). In establishing EC50 values for activation by FMRFa, we waited 4 min between applications of increasing concentrations.”

ENaCs = ENaCs possess asparagine at the 0′ position; cited from earlier work
From the text: Given the drug’s effect on pore radius and its voltage-dependent block of currents, we hypothesized that this nonprotein density derives from partially unresolved or low occupancy diminazene molecules. […] We ...

FaNaC1 (WT) [3] = molecular target: T1, FaNaC1 (WT); experiment: Two-electrode voltage clamp, peptide-gated currents in Xenopus laevis oocytes expressing WT FaNaC1; type: cell-based
Experimental: as §1, §2

FaNaC1 H297S [4] = experiment: TEVC, FMRFa- and ASSFVRIa-gated currents at H297S channels; type: cell-based, Malacoceros fuliginosus; conditions: normalized to maximum FMRFa-gated current
From the text: as §6
as §5, with “N values refer to experiments performed on different oocytes.” left out, “(EC50/IC50).” for “(EC50/IC50). In establishing EC50 values for activation by FMRFa, we waited 4 min between applications of increasing concentrations.”

[5] = molecular target: FMRFamide-gated sodium channel 1 (FaNaC1) from Malacoceros fuliginosus (Malacoceros fuliginosus); experiment: cryo-EM structure; FaNaC1 in POPC:POPG (3:1) lipid nanodiscs, 20 mM HEPES pH 7.6, 150 mM NaCl; alone, or with FMRFa 30 µM or ASSFVRIa 100 µM added directly before freezing; C3 symmetry imposed
[6] = molecular target: FMRFamide-gated sodium channel 1 (FaNaC1) from Malacoceros fuliginosus (Malacoceros fuliginosus)
[7] = molecular target: FaNaC1 F129A (Malacoceros fuliginosus)
[8] = molecular target: FaNaC1 F129L (Malacoceros fuliginosus)
[9] = molecular target: FaNaC1 F129Q (Malacoceros fuliginosus)
[10] = molecular target: FaNaC1 V122A (Malacoceros fuliginosus)
[11] = molecular target: FaNaC1 F129C (Malacoceros fuliginosus)
[12] = molecular target: FaNaC1 F129C modified by MTSET (Malacoceros fuliginosus)
[13] = molecular target: FaNaC1 F97C (Malacoceros fuliginosus)
[14] = molecular target: FaNaC1 F97C modified by MTSET (Malacoceros fuliginosus)
[15] = molecular target: FaNaC1 M238C (Malacoceros fuliginosus)
[16] = molecular target: FaNaC1 M238C modified by MTSET (Malacoceros fuliginosus)
[17] = molecular target: FMRFamide-gated sodium channel 1 (FaNaC1) from Malacoceros fuliginosus (Malacoceros fuliginosus); remark: listed apart in the source
[18] = [Diminazene] 1e-7 M, 1 μM FMRF-gated current

With `N=C(N)c1ccc(/N=N/Nc2ccc(C(=N)N)cc2)cc1` [diminazene] the Remaining peak current (FaNaC1 (WT) [1]; [18]) was 0.9158 and 0.934 and 1.161 and 1.255, the Remaining sustained current (FaNaC1 (WT) [1]; [18]) was 0.6522 and 0.7647 and 0.9533 and 0.9846 and 0.7407 and 0.6744 and the Remaining peak current (FaNaC1 (WT) [1]; [Diminazene] 1e-6 M) was 0.5053 and 0.783 and 0.8871 and 0.9636. For the same molecule, the “effect of mutation on diminazene potency” value (FaNaC1 D0′N) was “decreased diminazene potency approximately tenfold”, the “effect of mutation on diminazene potency” value (FaNaC1 G3′S) was “modestly reduced” and the “effect of mutation on diminazene potency” value (FaNaC1 G6′S) was “drastically reduced”. The “effect of mutation on diminazene potency” value (FaNaC1 S-1′A) was “no effect”, the “block of constitutive current” value (FaNaC1 H297S [2]) was 76 ± 5% and the sensitivity to diminazene (ENaCs) was “insensitive”.

With “ASSFVRI-NH2 [ASSFVRIa, product of the FVRIamide precursor in several annelids]” the agonist type (FaNaC1 (WT) [3]) was “partial agonist” and the “relative efficacy at H297S compared to WT” value (FaNaC1 H297S [4]) was “increased”.

For “FMRA–NH2 [FMRAa, FMRFa analog lacking the C-terminal F4 side chain]”, the activation of current (FaNaC1 (WT) [3]; 100 μM peptide) was “barely activating detectable currents”.

“FMRFamide-gated sodium channel 1 (FaNaC1) from Malacoceros fuliginosus (receptor)” gave a stoichiometry N [5] of 3.

With “FVRI–NH2 [FVRIa, four C-terminal residues of ASSFVRIa]” the “activity compared to parent peptide ASSFVRIa” value (FaNaC1 (WT) [3]) was “very similar activity”.

B1: FMRFamide (H-Phe-Met-Arg-Phe-NH2) (peptide)
peptide: H-FMRF-NH2
In the case of B1, the EC50 of FMRFa-gated current, two-electrode voltage clamp, Xenopus oocytes expressing WT FaNaC1 [6] is reported as 850 nM, the EC50 of FMRFa-gated current, two-electrode voltage clamp, Xenopus oocytes [7] is reported as 18000 nM and the EC50 of FMRFa-gated current, two-electrode voltage clamp, Xenopus oocytes [8] is reported as 9000 nM. It also gave a fold decrease of FMRFa potency (EC50 of gated current) against WT, two-electrode voltage clamp, Xenopus oocytes [9] of 100 fold, an EC50 of FMRFa-gated current, two-electrode voltage clamp, Xenopus oocytes (20-fold increase in potency) [10] of 40 nM and an EC50 of FMRFa-gated current without MTSET, two-electrode voltage clamp, Xenopus oocytes [11] of 5000 nM. It also gave an EC50 of FMRFa-gated current with MTSET, two-electrode voltage clamp, Xenopus oocytes [12] greater than 10000 nM, an EC50 of FMRFa-gated current without MTSET, two-electrode voltage clamp, Xenopus oocytes [13] of 250 nM and an EC50 of FMRFa-gated current with MTSET, two-electrode voltage clamp, Xenopus oocytes [14] of 4000 nM. The EC50 of FMRFa-gated current without MTSET, two-electrode voltage clamp, Xenopus oocytes [15] was 140 nM and the EC50 of FMRFa-gated current with MTSET, two-electrode voltage clamp, Xenopus oocytes [16] was 580 nM.

B2: FM(citrulline)F-NH2 (peptide)
peptide: FM[Cit]F-NH2
modifications: N-terminus assumed
SMILES: CSCC[C@H](NC(=O)[C@@H](N)Cc1ccccc1)C(=O)N[C@@H](CCCNC(N)=O)C(=O)N[C@@H](Cc1ccccc1)C(N)=O
In the case of B2, the EC50 of peptide-gated current, two-electrode voltage clamp, Xenopus oocytes expressing WT FaNaC1 [17] is reported as 690 nM.

B3: FMQF-NH2 (peptide)
peptide: FMQF-NH2
Molecule B3 has an EC50 of peptide-gated current, two-electrode voltage clamp, Xenopus oocytes expressing WT FaNaC1 [17] of 4500 nM.

B4: AMRF-NH2 (peptide)
peptide: AMRF-NH2
Work on B4 yielded an EC50 of peptide-gated current, two-electrode voltage clamp, Xenopus oocytes expressing WT FaNaC1 [17] of 300 nM.

— article PMC11026163, “Structural basis for excitatory neuropeptide signaling” (Nature Structural & Molecular Biology, 2024)
